Twelve molecules from patent publication US10550165B2, “Peptide for inducing regeneration of tissue and use thereof” (STEMRIM INC., priority 2011, dated 2020) can be followed below.

For experiment [1], the system named is mouse bone marrow mesenchymal stem cell line (MSC-1 cells), PDGFRα-positive. Put plainly: Migration assay (Boyden / 48-well chemotaxis chamber) on bone marrow mesenchymal stem cell line MSC-1. To be noted: for migration-promoting activity per equal mass, 2-215 taken as 1 / migration-promoting activity per molar concentration, 2-215 taken as 1: FIGS. 18C and 18D. The class given is cell-based. The protocol:
Cells of a mouse bone marrow mesenchymal stem cell line (MSC-1 cells, established by Tamai et al. of Osaka University (PDGFRα-positive cells in bone marrow are mobilized by high mobility group box 1 (HMGB1) to regenerate injured epithelia. (Tamai et al., Proc Natl Acad Sci USA. Apr. 4, 2011))) were detached from dishes using trypsin, and collected by centrifugation at 1200 rpm and 4° C. for 10 minutes. The resulting pellet was loosened and suspended at a cell concentration of 2.0×10^6 to 3.0×10^6 cells/ml by adding Dulbecco's Modified Eagle Medium (D-MEM) containing 10% fetal bovine serum (FBS). The recombinant protein and peptides produced in HEK293 were diluted with D-MEM containing 10% FBS. The negative control used was phosphate buffered saline (PBS). An acrylic Boyden chamber was used; cells of the mouse bone marrow mesenchymal stem cell line prepared at a cell concentration of 3×10^6 cells/ml were placed in its upper layer, while a diluted protein or peptide is added to the bottom layer. More specifically, a 28 μl aliquot of a protein or peptide solution was added to each well of the bottom plate of a 48-well chemotaxis chamber (NEURO PROBE 48WELL CHEMOTAXIS CHAMBER), and a polycarbonate membrane with 8 μm pores (Neuro Probe, Inc, Cat: 866-417-0014) was placed on the bottom plate. Then, an upper plate was placed on the membrane and screwed tightly. 50 μl of cells of the mouse bone marrow mesenchymal stem cell line after concentration adjustment were added to the upper plate wells. The chamber was placed in an incubator under 5% CO2 at 37° C. After four hours, the membrane was removed from the chamber and stained with Diff-Quik (Sysmex, Cat: 16920) to detect cells that migrated through membrane pores to the lower compartment.
The peptides listed below were custom synthesized using the solid phase method by Medical & Biological Laboratories (MBL). The peptides were synthesized based on the mouse HMGB1 sequence (SEQ ID NO: 3). Synthetic peptides described in subsequent Examples were also prepared based on the mouse HMGB1 sequence. • A synthetic peptide consisting of the amino acid sequence from positions 1 to 10 of HMGB1 (1-10); • a synthetic peptide consisting of the amino acid sequence from positions 1 to 34 of HMGB1 (1-34); • a synthetic peptide consisting of the amino acid sequence from positions 37 to 62 of HMGB1 (37-62); • a synthetic peptide consisting of the amino acid sequence from positions 27 to 62 of HMGB1 (27-62); • a synthetic peptide consisting of the amino acid sequence from positions 56 to 72 of HMGB1 (56-72); • a synthetic peptide consisting of the amino acid sequence from positions 11 to 20 of HMGB1 (11-20); • a synthetic peptide consisting of the amino acid sequence from positions 11 to 25 of HMGB1 (11-25); • a synthetic peptide consisting of the amino acid sequence from positions 11 to 30 of HMGB1 (11-30); • a synthetic peptide consisting of the amino acid sequence from positions 11 to 34 of HMGB1 (11-34); • a synthetic peptide consisting of the amino acid sequence from positions 11 to 44 of HMGB1 (11-44); • a synthetic peptide consisting of the amino acid sequence from positions 17 to 44 of HMGB1 (17-44); • a synthetic peptide consisting of the amino acid sequence from positions 1 to 25 of HMGB1 (1-25); and the whole mouse HMGB1 produced in HEK293 (1-215(HEK)) as a positive control were adjusted to 100 μg/ml and placed in the lower layer of a chemotaxis chamber to assess the migration-promoting activity on bone marrow mesenchymal stem cell line (MSC-1). Results
As positive controls, centrifuged supernatant of the skin of a one-day-old mouse (one individual) incubated in PBS at 4° C. for 12 hours, and the whole mouse HMGB1 (HMGB1(HEK_1-215)) produced in HEK293 were used. […]

Experiment [2] has as its system human-derived bone marrow mesenchymal stem cells (hMSC). Put plainly: Migration assay on human-derived bone marrow mesenchymal stem cells. The format is cell-based. The note with it: human HMGB1 fragments produced in E. coli, 2 μM, FIG. 21B. From the text: Human HMGB1 fragments (2-215, 2-84, 2-44, 45-84, 85-169, 89-185, 89-195, and 89-205) were produced in E. coli and purified using appropriate columns in the same manner as described in Examples 14, 15, and 16 above. However, 89-215 was purified by the same method as used for 89-205 in Example 15.
Using human-derived bone marrow mesenchymal stem cells, each fragment was examined by the same migration assay performed on mouse-derived bone marrow mesenchymal stem cells (MSC-1) as described above. The fragments were used at a final concentration of 2 μM. The human-derived bone marrow mesenchymal stem cells used were hMSC (human Mesenchymal Stem Cell, Takara) at fourth passage. The growth medium used was a mesenchymal stem cell growth medium (MF medium, TOYOBO). The cells were cultured in an incubator under 5% CO2 at 37° C. The medium was changed with a fresh medium every two to four days. The cells were passaged when they reached 80% confluency.

Where [3] appears, read: human HMGB1 fragments produced in E. coli, 2 μM, FIG. 18B.
[4] abbreviates: human HMGB1 fragments produced in E. coli, 2 μM.
Setting [5] is: human HMGB1 fragments 89-215, 89-205, 89-195, 89-185 and their Q column fractions, E. coli, 2 μM, FIGS. 19B and 19D.
[6] abbreviates: human HMGB1 fragments 2-215, 2-205, 2-195, 2-185 produced in E. coli, 2 μM, FIG. 21A.

As for “2-44: human HMGB1 fragment, positions 2 to 44, produced in E. coli (GKGDPKKPRGKMSSYAFFVQTCREEHKKKHPDASVNFSEFSKK; UniProt P09429 2-44, looked up, fragment)”, the values for the migration-promoting activity result in experiment [1] (setting [3]) and in experiment [2] were “showed migration-promoting activity on bone marrow mesenchymal stem cells” and “greater than human HMGB1 fragment (2-215)”, respectively. Moreover, the “migration-promoting activity per equal mass, 2-215 taken as 1” value in experiment [1] (setting [4]) came to 7.1 times. Moreover, the “migration-promoting activity per molar concentration, 2-215 taken as 1” value in experiment [1] (setting [4]) is on record as 1.82 times. With “45-84: peptide of positions 45 to 84 of mouse HMGB1, produced using HEK293 (CSERWKTMSAKEKGKFEDMAKADKARYEREMKTYIPPKGE; UniProt P63158 45-84, looked up, fragment)”, the migration-promoting activity result is given as “showed migration-promoting activity on bone marrow mesenchymal stem cells” in experiment [1] (setting [3]); “showed migration-promoting activity” in experiment [1] (protein and peptides produced using HEK293 (mouse HMGB1), 50 μg/ml, 4 h, FIG. 2A); “greater than human HMGB1 fragment (2-215)” in experiment [2]. For the same molecule, in experiment [1] (setting [4]), the “migration-promoting activity per equal mass, 2-215 taken as 1” value amounted to 8.1 times. The “migration-promoting activity per molar concentration, 2-215 taken as 1” value in experiment [1] (setting [4]) is given as 2.04 times.

B1: 2-84: human HMGB1 fragment, positions 2 to 84, produced in E. coli (protein, UniProt P09429 2-84, looked up, fragment)
chain: GKGDPKKPRGKMSSYAFFVQTCREEHKKKHPDASVNFSEFSKKCSERWKTMSAKEKGKFEDMAKADKARYEREMKTYIPPKGE
Consider B1, for which the migration-promoting activity result in experiment [1] (fragment 2-84 and fusions with acidic tail fragments, produced in E. coli, FIG. 21D) is “exhibited migration-promoting activity”; in experiment [1] (setting [3]), “showed migration-promoting activity on bone marrow mesenchymal stem cells”; in experiment [2], “greater than human HMGB1 fragment (2-215)”. The “migration-promoting activity per equal mass, 2-215 taken as 1” value in experiment [1] (setting [4]) came out at 5.5 times. For the same molecule, the “migration-promoting activity per molar concentration, 2-215 taken as 1” value in experiment [1] (setting [4]) turned out to be 2.37 times.

B2: 89-205: human HMGB1 fragment, positions 89 to 205, produced in E. coli (protein, UniProt P09429 89-205, looked up, fragment)
chain: FKDPNAPKRPPSAFFLFCSEYRPKIKGEHPGLSIGDVAKKLGEMWNNTAADDKQPYEKKAAKLKEKYEKDIAAYRAKGKPDAAKKGVVKAEKSKKKKEEEEDEEDEEDEEEEEDEED
For the molecule B2, the migration-promoting activity entry in experiment [1] (setting [5]) was “weak migration-promoting activity”.

B3: 2-70: human HMGB1 fragment, positions 2 to 70, produced in E. coli (protein, UniProt P09429 2-70, looked up, fragment)
chain: GKGDPKKPRGKMSSYAFFVQTCREEHKKKHPDASVNFSEFSKKCSERWKTMSAKEKGKFEDMAKADKAR
Turning to B3, the migration-promoting activity result in experiment [1] (setting [3]) is recorded as “showed migration-promoting activity on bone marrow mesenchymal stem cells”.

B4: 2-81: human HMGB1 fragment, positions 2 to 81, produced in E. coli (protein, UniProt P09429 2-81, looked up, fragment)
chain: GKGDPKKPRGKMSSYAFFVQTCREEHKKKHPDASVNFSEFSKKCSERWKTMSAKEKGKFEDMAKADKARYEREMKTYIPP
In the case of B4, the migration-promoting activity entry in experiment [1] (setting [3]) is “showed migration-promoting activity on bone marrow mesenchymal stem cells”.

B5: 2-195: human HMGB1 fragment, amino acids of positions 2 to 195, produced in E. coli (protein, UniProt P09429 2-195, looked up, fragment)
chain: GKGDPKKPRGKMSSYAFFVQTCREEHKKKHPDASVNFSEFSKKCSERWKTMSAKEKGKFEDMAKADKARYEREMKTYIPPKGETKKKFKDPNAPKRPPSAFFLFCSEYRPKIKGEHPGLSIGDVAKKLGEMWNNTAADDKQPYEKKAAKLKEKYEKDIAAYRAKGKPDAAKKGVVKAEKSKKKKEEEEDEEDEE
Turning to B5, the migration-promoting activity result in experiment [1] (setting [6]) is “stronger migration-promoting activity than fragments 2-215 and 2-205”.

B6: 2-170: human HMGB1 fragment, positions 2 to 170, produced in E. coli (protein, UniProt P09429 2-170, looked up, fragment)
chain: GKGDPKKPRGKMSSYAFFVQTCREEHKKKHPDASVNFSEFSKKCSERWKTMSAKEKGKFEDMAKADKARYEREMKTYIPPKGETKKKFKDPNAPKRPPSAFFLFCSEYRPKIKGEHPGLSIGDVAKKLGEMWNNTAADDKQPYEKKAAKLKEKYEKDIAAYRAKGKPDA
As for B6, the migration-promoting activity result in experiment [1] (setting [3]) is on record as “showed migration-promoting activity on bone marrow mesenchymal stem cells”.

B7: 89-215: human HMGB1 fragment, positions 89 to 215, produced in E. coli (protein, UniProt P09429 89-215, looked up, fragment)
chain: FKDPNAPKRPPSAFFLFCSEYRPKIKGEHPGLSIGDVAKKLGEMWNNTAADDKQPYEKKAAKLKEKYEKDIAAYRAKGKPDAAKKGVVKAEKSKKKKEEEEDEEDEEDEEEEEDEEDEDEEEDDDDE
For B7, in experiment [1] (setting [5]), the migration-promoting activity entry is recorded as “weak migration-promoting activity”.

B8: 2-185: human HMGB1 fragment, amino acids of positions 2 to 185, produced in E. coli (protein, UniProt P09429 2-185, looked up, fragment)
chain: GKGDPKKPRGKMSSYAFFVQTCREEHKKKHPDASVNFSEFSKKCSERWKTMSAKEKGKFEDMAKADKARYEREMKTYIPPKGETKKKFKDPNAPKRPPSAFFLFCSEYRPKIKGEHPGLSIGDVAKKLGEMWNNTAADDKQPYEKKAAKLKEKYEKDIAAYRAKGKPDAAKKGVVKAEKSKKKK
Regarding B8, in experiment [1] (setting [6]), the migration-promoting activity result is “stronger migration-promoting activity than fragments 2-215 and 2-205”.

B9: 2-62: human HMGB1 fragment, positions 2 to 62, produced in E. coli (protein, UniProt P09429 2-62, looked up, fragment)
chain: GKGDPKKPRGKMSSYAFFVQTCREEHKKKHPDASVNFSEFSKKCSERWKTMSAKEKGKFED
In the case of B9, the migration-promoting activity result in experiment [1] (setting [3]) was “showed migration-promoting activity on bone marrow mesenchymal stem cells”.

B10: 93-215: human HMGB1 fragment, positions 93 to 215, produced in E. coli (protein, UniProt P09429 93-215, looked up, fragment)
chain: NAPKRPPSAFFLFCSEYRPKIKGEHPGLSIGDVAKKLGEMWNNTAADDKQPYEKKAAKLKEKYEKDIAAYRAKGKPDAAKKGVVKAEKSKKKKEEEEDEEDEEDEEEEEDEEDEDEEEDDDDE
Turning to B10, the migration-promoting activity entry in experiment [1] (setting [3]) is “showed migration-promoting activity on bone marrow mesenchymal stem cells”.
